Results: publication doi:10.1101/2021.03.17.435802 (bioRxiv, 2021)

B1: LY-CoV555 (antibody, V domains shown)
VH: QVQLVQSGAEVKKPGSSVKVSCKASGGTFSNYAISWVRQAPGQGLEWMGRIIPILGIANYAQKFQGRVTITADKSTSTAYMELSSLRSEDTAVYYCARGYYEARHYYYYYAMDVWGQGTAVTVSS
VL: not shown
B2: REGN10933 (antibody, V domains shown)
VH: QVQLVESGGGLVKPGGSLRLSCAASGFTFSDYYMSWIRQAPGKGLEWVSYITYSGSTIYYADSVKGRFTISRDNAKSSLYLQMNSLRAEDTAVYYCARDRGTTMVPFDYWGQGTLVTVSS
VL: DIQMTQSPSSLSASVGDRVTITCQASQDITNYLNWYQQKPGKAPKLLIYAASNLETGVPSRFSGSGSGTDFTFTISGLQPEDIATYYCQQYDNLPLTFGGGTKVEIK

Molecular target: SARS-CoV-2 S1 WT (in-house) (SARS-CoV-2, UniProt P0DTC2)
Assay: SPR

| Binder | binding result |
| --- | --- |
| B1 | binds |
| B2 | binds |
